Our source for the percent of NuPODs occupied by values is publication PMC11100828.

This assay deals with human Nup153^CTD (C-terminal domain, aa 896-1485), MBP and SNAP-tag fusion protein (human). The assay is described as follows: negative-stain TEM, occupancy of NuPODs by capsids.

In turn, “HBV capsids assembled in vitro from wild type HBV core protein (HBc) (from UniProt P03146 1-183) (complex)” displayed a percent of NuPODs occupied by at least one capsid of 90%.
